Data reported in PMC9652331, “Cryo-EM structures of human m^6A writer complexes” (Cell Research, 2022).

Molecular target: the molecule itself
Test: cross-linking; BS3 XL-MS of purified MACOM (Fig. S4a, b): 0.5 mM BS3, 50 mM HEPES pH 7.5, 100 mM KCl, 5% glycerol, 25 °C, 2 h; pLink2

B1: Wilms' tumor 1-associated protein (WTAP), full length, N-6× His-WTAP (natural protein, human, UniProt Q15007 1-396, looked up)
chain: MTNEEPLPKKVRLSETDFKVMARDELILRWKQYEAYVQALEGKYTDLNSNDVTGLRESEEKLKQQQQESARRENILVMRLATKEQEMQECTTQIQYLKQVQQPSVAQLRSTMVDPAINLFFLKMKGELEQTKDKLEQAQNELSAWKFTPDSQTGKKLMAKCRMLIQENQELGRQLSQGRIAQLEAELALQKKYSEELKSSQDELNDFIIQLDEEVEGMQSTILVLQQQLKETRQQLAQYQQQQSQASAPSTSRTTASEPVEQSEATSKDCSRLTNGPSNGSSSRQRTSGSGFHREGNTTEDDFPSSPGNGNKSSNSSEERTGRGGSGYVNQLSAGYESVDSPTGSENSLTHQSNDTDSSHDPQEEKAVSGKGNRTVGSRHVQNGLDSSVNVQGSVL
notes: Wilms' tumor 1-associated protein (WTAP), human, full length; Stands as a homodimer in the MACOM complexes (two copies, WTAP-a and WTAP-b); No removal of the His tag is described; also called WTAP-a; WTAP-b; source: High Five insect cells, co-expressed with the other MACOM components, purified as a complex (Ni-NTA, STREP beads, SEC); not shown: 6× His, N-terminal, kept
  binding result: binds
